As usually defined, the Kd is a measure of binding affinity in units of concentration. Broadly, the EC50 (read off the curve) is the concentration needed to bring the measured effect to its halfway point. The term koff denotes a measure of how fast the partners let go of each other. Usually kon stands for the second-order rate constant of association.

The target of experiment [1] is T1, human mesothelin recombinant protein (human, UniProt Q13421 296-580, limits assumed).
T1 construct: also called mesothelin protein; MSLN
As to the kind of experiment: ELISA, plate coated with mesothelin protein, serial dilutions of antibody, non-linear regression. As to the method: (§1) ELISA plates were coated with 1˜2 μg/100 μl per well of mesothelin protein. Wells were rinsed for 3 times with PBS and blocked with 300 μl 5% MPBS per well for 2 hr at 37° C. After washing with PBS, wells were incubated with serial diluted mesothelin antibodies in 5% MPBS for 1.5 hours at 37° C. The plates were washed and goat polyclonal anti-human IgG-HRP antibody (1:10,000) (Jackson ImmunoResearch) was added into each well. The absorbance was measured as described above and the binding affinities of antibodies were calculated by non-linear regression with Prism software (GraphPad).

Experiment [2] addresses T1, human mesothelin recombinant protein. Briefly: ELISA, plate coated with mesothelin at 1 ug/mL, detection with anti-human Kappa light chains. The protocol:
(§2) 100 μL of mesothelin in a coating buffer at a concentration of 1 μg/mL was added to and coated on each well of a plate. The plates were sealed and incubated at 4° C. overnight. The wells were aspirated and washed with 300 μL of PBST (0.05% Tween 20) for 3 times. The wells were blocked by adding 200 μL of PBS-5% skim milk and incubated at 37° C. for 1 hour. The wells were aspirated and washed with 300 μL/well of PBST (0.05% Tween 20) for 3 times. 100 μL of 400 ng ADC sample diluted with PBS was added to each well, and the plates were then incubated at 37° C. for 1 hour. The wells were aspirated and washed with 300 μL of PBST (0.05% Tween 20) for 3 times. 50 μl of anti-human Kappa light chains (1:5000) was added to each well, and the plates were incubated at 37° C. for 1 hour. The wells were aspirated and washed with 300 μL/well of PBST (0.05% Tween 20) for 3 times. 100 μl of TMB was added to each well, and the plates were incubated at room temperature for 15 minutes. The color development was stopped by adding 100 μL of 1N HCl.
Background: In an ELISA, binding on a coated surface is turned into a signal by an enzyme label.

The target is the same in experiment [3]. As to the kind of experiment: ELISA, plate coated with mesothelin 1 ug/mL, detection with anti-human kappa light chain antibody. The protocol: as §2
Experiment [4] shares this target. As to the kind of experiment: SPR, Biacore T100, ADC captured on anti-human IgG-Fc CM5 chip, human mesothelin recombinant protein as analyte (3.7 to 100 nM), 1:1 Langmuir model. The protocol:
(§3) The kinetic constant of the anti-mesothelin ADCs interaction against mesothelin was determined by surface plasma resonance (Biacore® T100, Biacore, Inc., Piscataway, N.J.). The flow cell of the CM5 wafer was fixed with approximately 10,000 reaction units (RU) of anti-human IgG-Fc (Biacore®) in 10 mM glycine pH 5.0 at 10 μL/min for 600 seconds. 10 μg/mL of anti-mesothelin antibody and anti-mesothelin ADCs diluted in TBS at 10 μl/min were captured on CM5 chips. Four concentrations (from 3.7 to 100 nM) of human mesothelin recombinant protein and zero concentration (flow buffer) in 100 μl/min binding were recorded in PBS containing 1 mM CaCl₂ for 3 minutes. The dissociation of the complex was measured for 10 minutes. The water surface was regenerated by injecting 3 M MgCl₂ and 3 mM EGTA at 10 μl/min for 60 seconds. The curve obtained after subtracting the reference and buffer signals was taken into the 1:1 Langmuir binding model using the Biacore® T100 evaluation software (Biacore®).

For experiment [5] the target is unchanged. Briefly: SPR, Biacore T100, antibody captured on anti-human IgG-Fc CM5 chip, human mesothelin recombinant protein as analyte (3.7 to 100 nM), 1:1 Langmuir model. As to the method: as §3
Experiment [6] shares this target. As to the kind of experiment: ELISA, plate coated with mesothelin protein, serial dilutions of antibody, detection with anti-human IgG-HRP. The protocol: as §1
Experiment [7] has the same target. Briefly: SPR, BIAcore T200, mesothelin coupled to CM5 chip, antibody injected (0.3125 nM to 40 nM), 25 degree C, 1:1 Langmuir model. The protocol: Carboxymethylated dextran biosensor chips (CM5, Cytiva Inc.) were activated with N-ethyl-N′-(3-dimethylaminopropyl)-carbodiimide hydrochloride (EDC) and N-hydroxysuccinimide (NHS) according to the supplier's instructions. Mesothelin protein was diluted with 10 mM sodium acetate, pH 4.0, into 5 μg/ml before injection at a flow rate of 10 μL/minute to achieve approximately 1500 response units (RU) of coupled protein followed by the injection of 1M ethanolamine to block unreacted groups. For kinetics measurements, two-fold serial dilutions of anti-mesothelin mAb (0.3125 nM to 40 nM) were injected in HBS-EP+ Biacore running buffer provided by the manufacturer (Cytiva Inc.) at 25 degree C. at a flow rate of 30 μL/min, and binding responses on the mesothelin protein were corrected by subtraction of responses on a blank flow cell. Association rates (kon or ka) and dissociation rates (koff or kd) were calculated using a simple one-to-one Langmuir binding model with separate fittings of kon and koff was used. (Cytiva.™. Biacore Insight Evaluation Software).
On the technique in general: Surface plasmon resonance follows binding to a sensor surface in real time, without labels.

T1 sequence (Q13421 other isoform, or with tags, fused parts or gaps limits assumed): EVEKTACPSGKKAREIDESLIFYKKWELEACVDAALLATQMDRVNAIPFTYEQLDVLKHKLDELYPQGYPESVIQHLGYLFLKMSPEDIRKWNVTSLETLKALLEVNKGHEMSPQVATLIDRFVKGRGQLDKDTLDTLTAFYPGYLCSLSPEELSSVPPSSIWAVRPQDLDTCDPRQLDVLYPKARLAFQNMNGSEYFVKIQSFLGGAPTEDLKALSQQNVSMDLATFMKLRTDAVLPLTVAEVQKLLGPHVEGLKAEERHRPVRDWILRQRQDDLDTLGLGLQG

B1: humanized SS1 4D5 (HdSS1) (antibody, V domains shown)
VH: EVQLVESGGGLVQPGGSLRLSCAASGYSFTGYTMNWVRQAPGKGLEWVALITPYNGASSYNQKFRGRFTISRDDSKNTLYLQMNSLRAEDTAVYYCARGGYDGRGFDYWGQGTLVTVSS
VL: DIQMTQSPSSLSASVGDRVTITCSASSSVSYMHWYQQKPGKAPKLLIYDTSKLASGVPSRFSGSGSGTDFTLTISSLQPEDFATYYCQQWSKHPLTFGQGTKVEIKR
notes: also called HdSS1 HH; HdSS1 (HH)
For B1, the Kd in experiment [1] amounted to 26.1 nM.

B2: DCBPR2002-2(DBCO-vc-seco-DUBA)-2(DBCO-s-DM1) (other)
VH: QVQLVQSGAEVKKPGASVKVSCKASGYSFTGYTMNWVRQAPGQGLEWMGLITPYNGASSYNQKFRGRVTMTRDTSISTAYMELSRLRSDDTAVYYCARGGYDGRGFDYWGQGTLVTVSS
VL: EIVLTQSPATLSLSPGERATLSCSASSSVSYMHWYQQKPGQAPRLLIYDTSKLASGIPARFSGSGSGTDFTLTISSLEPEDFAVYYCQQWSKHPLTFGQGTKVEIKR
modifications: DBCO-vc-seco DUBA (2 per antibody) and DBCO-S-DM1 (2 per antibody) linked through GlcNAz to the tri-mannosyl N-glycan of the heavy chain constant region (DAR ~4)
As to B2, in experiment [2], the equilibrium dissociation constant (Kd) is 0.0732 nM. Also, in experiment [3], the “EC50 (read off the curve)” value is roughly 0.07 nM.

B3: DCBPR2002-4(DBCO-vc-MMAE) (other)
VH: QVQLVQSGAEVKKPGASVKVSCKASGYSFTGYTMNWVRQAPGQGLEWMGLITPYNGASSYNQKFRGRVTMTRDTSISTAYMELSRLRSDDTAVYYCARGGYDGRGFDYWGQGTLVTVSS
VL: EIVLTQSPATLSLSPGERATLSCSASSSVSYMHWYQQKPGQAPRLLIYDTSKLASGIPARFSGSGSGTDFTLTISSLEPEDFAVYYCQQWSKHPLTFGQGTKVEIKR
modifications: DBCO-vc-MMAE linked through GlcNAz to the tri-mannosyl N-glycan of the heavy chain constant region; 4 per antibody (DAR 3.89 by LC-MS)
In the case of B3, the Kd was found to be 0.0217 nM in experiment [4] and 0.133 nM in experiment [2].

B4: humanized antibody HuSS1 (DCBPR2002) (antibody, V domains shown)
VH: QVQLVQSGAEVKKPGASVKVSCKASGYSFTGYTMNWVRQAPGQGLEWMGLITPYNGASSYNQKFRGRVTMTRDTSISTAYMELSRLRSDDTAVYYCARGGYDGRGFDYWGQGTLVTVSS
VL: EIVLTQSPATLSLSPGERATLSCSASSSVSYMHWYQQKPGQAPRLLIYDTSKLASGIPARFSGSGSGTDFTLTISSLEPEDFAVYYCQQWSKHPLTFGQGTKVEIKR
notes: also called HuSS1-HH; HuSS1 (HH)
B4: the Kd in experiment [5] came to 0.0169 nM; in experiment [7] it was 0.0025 nM; in experiment [1] it was 0.0499 nM; in experiment [2], 0.0924 nM. Also, the entries for the “EC50 (read off the curve)” value in experiment [6] and in experiment [3] were roughly 0.05 nM and roughly 0.09 nM, respectively. The off-rate constant (koff) in experiment [7] was 1.12e-05 s⁻¹. Also, the kon in experiment [7] was determined as 4.49e+06 M⁻¹ s⁻¹.

B5: DCBPR2002-4(DBCO-vc-seco-DUBA) (other)
VH: QVQLVQSGAEVKKPGASVKVSCKASGYSFTGYTMNWVRQAPGQGLEWMGLITPYNGASSYNQKFRGRVTMTRDTSISTAYMELSRLRSDDTAVYYCARGGYDGRGFDYWGQGTLVTVSS
VL: EIVLTQSPATLSLSPGERATLSCSASSSVSYMHWYQQKPGQAPRLLIYDTSKLASGIPARFSGSGSGTDFTLTISSLEPEDFAVYYCQQWSKHPLTFGQGTKVEIKR
modifications: DBCO-vc-seco DUBA linked through GlcNAz to the tri-mannosyl N-glycan of the heavy chain constant region; 4 per antibody (DAR ~4)
For B5, the Kd in experiment [2] was found to be 0.0975 nM.

B6: DCBPR2002-2(DBCO-vc-MMAE)-2(DBCO-s-DM1) (other)
VH: QVQLVQSGAEVKKPGASVKVSCKASGYSFTGYTMNWVRQAPGQGLEWMGLITPYNGASSYNQKFRGRVTMTRDTSISTAYMELSRLRSDDTAVYYCARGGYDGRGFDYWGQGTLVTVSS
VL: EIVLTQSPATLSLSPGERATLSCSASSSVSYMHWYQQKPGQAPRLLIYDTSKLASGIPARFSGSGSGTDFTLTISSLEPEDFAVYYCQQWSKHPLTFGQGTKVEIKR
modifications: DBCO-vc-MMAE (2 per antibody) and DBCO-S-DM1 (2 per antibody) linked through GlcNAz to the tri-mannosyl N-glycan of the heavy chain constant region (DAR ~4)
With B6, in experiment [2], the Kd was 0.136 nM.

B7: DCBPR2002-4(DBCO-s-DM1) (other)
VH: QVQLVQSGAEVKKPGASVKVSCKASGYSFTGYTMNWVRQAPGQGLEWMGLITPYNGASSYNQKFRGRVTMTRDTSISTAYMELSRLRSDDTAVYYCARGGYDGRGFDYWGQGTLVTVSS
VL: EIVLTQSPATLSLSPGERATLSCSASSSVSYMHWYQQKPGQAPRLLIYDTSKLASGIPARFSGSGSGTDFTLTISSLEPEDFAVYYCQQWSKHPLTFGQGTKVEIKR
modifications: DBCO-S-DM1 linked through GlcNAz to the tri-mannosyl N-glycan of the heavy chain constant region; 4 per antibody (DAR ~4)
For the molecule B7, in experiment [2], the Kd worked out at 0.145 nM.

B8: DCBPR2002-2(DBCO-vc-MMAE)-2(DBCO-vc-seco-DUBA) (other)
VH: QVQLVQSGAEVKKPGASVKVSCKASGYSFTGYTMNWVRQAPGQGLEWMGLITPYNGASSYNQKFRGRVTMTRDTSISTAYMELSRLRSDDTAVYYCARGGYDGRGFDYWGQGTLVTVSS
VL: EIVLTQSPATLSLSPGERATLSCSASSSVSYMHWYQQKPGQAPRLLIYDTSKLASGIPARFSGSGSGTDFTLTISSLEPEDFAVYYCQQWSKHPLTFGQGTKVEIKR
modifications: DBCO-vc-MMAE (2 per antibody) and DBCO-vc-seco DUBA (2 per antibody) linked through GlcNAz to the tri-mannosyl N-glycan of the heavy chain constant region (DAR ~4)
Turning to B8, the values for the equilibrium dissociation constant (Kd) in experiment [4] and in experiment [2] were 0.0256 nM and 0.158 nM, respectively.

(Values after US20210386866A1 (DEVELOPMENT CENTER FOR BIOTECHNOLOGY, published 2021).)
